Experimental data from the supplement of paper PMC7877785.
± gives the uncertainty stated by the source.

Assay: self-splicing fitness, log relative to wild type (ln ratio); higher = more splicing; Tetrahymena group I intron in knt gene, E. coli kanamycin selection, DiMSum; sequences stand for … in CUCUCU…GGAGGGAAAAGUUAUCAGGCAUGCACCUGGUAGCUAGUCUUUAAACCAAUAGAUUGCAUCGGUUUAAAAGGCAAGACCGUCAAAUUGCGGGAAAGGGGUCAACAGCCGUUCAGUACCAAGUCUCAGGGGAAACUUUGAGAUGGCCUUGCAAAGGGUAUGGUAAUAAGCUGACGGACAUGGUCCUAACCACGCAGCCAAGUCCUAAGUCAACAGAUCUUCUGUUGAUAUGGAUGCAGUUCACAGACUAAAUGUCGGUCGGGGAAGAUGUAUUCUUCUCAUAAGAUAUAGUCGGACCUCUCCUUAAUGGGAGCUAGCGGAUGAAGUGAUGCAACACUGGAGCCGCUGGGAACUAAUUUGUAUGCGAAAGUAUAUUGAUUAGUUUUGGAGUACUCGUGGUCG
Outline: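 Fitness was computed with DiMSum as the error-weighted combination of replicate fold changes, kanamycin versus none, each normalised to wild type. The library randomised all eight intron nucleotides of the P1ex region, with the intron placed in the knt kanamycin-resistance gene on pET-22b(+) in E. coli BL21(DE3). Six replicate transformations were grown overnight at 37°C or 30°C on LB agar with or without 25 μg/mL kanamycin, plus 100 μg/mL carbenicillin, 50 μM IPTG and 0.2% rhamnose. Pooled colonies were amplicon-sequenced on an Illumina HiSeq 2500.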

| Sequence | self-splicing fitness (ln) (30 °C) | self-splicing fitness (ln) (37 °C) |
| --- | --- | --- |
| AAGUAGCAAUAUUACGAGUA | -1.79 ± 0.15 | -1.86 ± 0.18 |
| AAGUAGCAAUAUUACGAUUG | -3.24 ± 0.28 | -0.999 ± 0.22 |
| AAGUAGCAAUAUUACGCAAC | -3.33 ± 0.25 | -2.87 ± 0.35 |
| AAGUAGCAAUAUUACGCAAG | -1.81 ± 0.17 | 0.657 ± 0.18 |
| AAGUAGCAAUAUUACGCCCC | -1.1 ± 0.19 | -1.22 ± 0.22 |
| AAGUAGCAAUAUUACGCCGG | -3.7 ± 0.3 | -1.59 ± 0.18 |
| AAGUAGCAAUAUUACGCUGU | -3.66 ± 0.25 | -1.87 ± 0.14 |
| AAGUAGCAAUAUUACGGAAC | -1.4 ± 0.49 | -1.46 ± 0.25 |
| AAGUAGCAAUAUUACGGAAG | -2.96 ± 0.19 | -2.44 ± 0.37 |
| AAGUAGCAAUAUUACGGAUU | -0.677 ± 0.092 | -0.751 ± 0.11 |
| AAGUAGCAAUAUUACGGCCA | -0.679 ± 0.095 | 0.256 ± 0.11 |
| AAGUAGCAAUAUUACGGGAC | -2.43 ± 0.11 | -2.83 ± 0.21 |
| AAGUAGCAAUAUUACGGGCG | -1.71 ± 0.11 | -1.53 ± 0.14 |
| AAGUAGCAAUAUUACGGGGA | -2.42 ± 0.18 | -1.74 ± 0.17 |
| AAGUAGCAAUAUUACGGGUU | -1.46 ± 0.13 | -1.55 ± 0.17 |
| AAGUAGCAAUAUUACGUCAC | -3.26 ± 0.15 | -3.73 ± 0.22 |
| AAGUAGCAAUAUUACGUUAC | -3.59 ± 0.3 | -2.71 ± 0.29 |
| AAGUAGCAAUAUUACGUUCC | -1.67 ± 0.16 | -0.678 ± 0.16 |
| AAGUAGCAAUAUUACGUUCG | -1.35 ± 0.13 | -0.681 ± 0.17 |
| AAUAAGCAAUAUUACGAAAC | -3.3 ± 0.39 | -2.17 ± 0.49 |
| AAUAAGCAAUAUUACGACAC | -1.12 ± 0.16 | -0.462 ± 0.16 |
| AAUAAGCAAUAUUACGAGCU | -0.949 ± 0.1 | -0.237 ± 0.1 |
| AAUAAGCAAUAUUACGAGUC | -3.1 ± 0.28 | -1.48 ± 0.18 |
| AAUAAGCAAUAUUACGAUCC | -0.993 ± 0.21 | -0.374 ± 0.24 |

| Sequence | self-splicing fitness (ln) (30 °C) | self-splicing fitness (ln) (37 °C) |
| --- | --- | --- |
| AAUAAGCAAUAUUACGCGCU | -0.554 ± 0.17 | -0.562 ± 0.18 |
| AAUAAGCAAUAUUACGCGUU | -3.75 ± 0.15 | -1.8 ± 0.14 |
| AAUAAGCAAUAUUACGCUCA | -0.304 ± 0.091 | -0.155 ± 0.12 |
| AAUAAGCAAUAUUACGGCCA | -0.21 ± 0.12 | -0.615 ± 0.12 |
| AAUAAGCAAUAUUACGGCGG | -0.94 ± 0.093 | -0.865 ± 0.1 |
| AAUAAGCAAUAUUACGGUAU | -2.05 ± 0.099 | -1.04 ± 0.13 |
| AAUAAGCAAUAUUACGGUGU | -2.59 ± 0.12 | -0.711 ± 0.12 |
| AAUAAGCAAUAUUACGUAGU | -3.14 ± 0.15 | -2.15 ± 0.19 |
| AAUAAGCAAUAUUACGUGAG | -0.815 ± 0.065 | -0.198 ± 0.093 |
| AAUAAGCAAUAUUACGUGCA | -0.334 ± 0.062 | 0.0616 ± 0.079 |
| AAUAAGCAAUAUUACGUGUG | -1.05 ± 0.077 | -1.57 ± 0.1 |
| AAUCAGCAAUAUUACGAAGA | -0.26 ± 0.087 | 0.0829 ± 0.099 |
| AAUCAGCAAUAUUACGAAGG | -1.16 ± 0.071 | -0.793 ± 0.099 |
| AAUCAGCAAUAUUACGAUUC | -2.99 ± 0.2 | -3.73 ± 0.39 |
| AAUCAGCAAUAUUACGCAAU | -0.895 ± 0.067 | -0.0563 ± 0.093 |
| AAUCAGCAAUAUUACGCACU | -0.299 ± 0.077 | 0.326 ± 0.093 |
| AAUCAGCAAUAUUACGCCAA | -1.61 ± 0.14 | -0.855 ± 0.15 |
| AAUCAGCAAUAUUACGCGAA | -0.0302 ± 0.071 | 0.278 ± 0.098 |
| AAUCAGCAAUAUUACGCGUA | -0.281 ± 0.068 | 0.0946 ± 0.082 |
| AAUCAGCAAUAUUACGCUAC | -2.83 ± 0.23 | -2.22 ± 0.27 |
| AAUCAGCAAUAUUACGGACA | -0.225 ± 0.077 | -0.145 ± 0.091 |
| AAUCAGCAAUAUUACGGAGG | -1.01 ± 0.084 | -1.18 ± 0.1 |
| AAUCAGCAAUAUUACGGCAU | -0.109 ± 0.045 | 0.27 ± 0.059 |
| AAUCAGCAAUAUUACGGUUC | -2.32 ± 0.11 | -1.91 ± 0.17 |

| Sequence | self-splicing fitness (ln) (30 °C) | self-splicing fitness (ln) (37 °C) |
| --- | --- | --- |
| AAUCAGCAAUAUUACGUCCG | -1.59 ± 0.085 | -0.00732 ± 0.11 |
| AAUCAGCAAUAUUACGUGGG | -2.12 ± 0.11 | -1.09 ± 0.12 |
| AAUCAGCAAUAUUACGUGUC | -0.924 ± 0.053 | -0.319 ± 0.069 |
| AAUCAGCAAUAUUACGUGUU | -0.901 ± 0.056 | 0.209 ± 0.064 |
| AAUGAGCAAUAUUACGAAAA | -3.58 ± 0.4 | -2.1 ± 0.27 |
| AAUGAGCAAUAUUACGACUC | -1.05 ± 0.13 | -0.904 ± 0.15 |
| AAUGAGCAAUAUUACGAGGG | -4.5 ± 0.29 | -1.98 ± 0.17 |
| AAUGAGCAAUAUUACGAGUC | -4.32 ± 0.46 | -3.08 ± 0.47 |
| AAUGAGCAAUAUUACGAUUU | -1.24 ± 0.095 | -0.73 ± 0.1 |
| AAUGAGCAAUAUUACGCCAG | -3.99 ± 0.3 | -2.87 ± 0.47 |
| AAUGAGCAAUAUUACGCCGC | – | -1.7 ± 0.42 |
| AAUGAGCAAUAUUACGCGCU | – | -1.72 ± 0.37 |
| AAUGAGCAAUAUUACGCUAU | -2.84 ± 0.28 | -1 ± 0.16 |
| AAUGAGCAAUAUUACGGAGC | -3.43 ± 0.25 | -1.03 ± 0.44 |
| AAUGAGCAAUAUUACGGAUG | -3.35 ± 0.17 | -2.23 ± 0.22 |
| AAUGAGCAAUAUUACGGUAG | -4.54 ± 0.32 | -3.47 ± 0.24 |
| AAUGAGCAAUAUUACGGUGG | -3.48 ± 0.21 | -1.89 ± 0.24 |
| AAUGAGCAAUAUUACGUGGU | -2.41 ± 0.11 | -3.49 ± 0.23 |
| AAUGAGCAAUAUUACGUGUA | -3.35 ± 0.23 | -2.56 ± 0.21 |
| AAUGAGCAAUAUUACGUUCG | -1.74 ± 0.11 | -0.765 ± 0.12 |
| AAUUAGCAAUAUUACGAAAG | -3.12 ± 0.19 | -1.51 ± 0.18 |
| AAUUAGCAAUAUUACGAACA | -0.672 ± 0.16 | -0.784 ± 0.18 |
| AAUUAGCAAUAUUACGACAA | -1.79 ± 0.21 | 0.209 ± 0.24 |
| AAUUAGCAAUAUUACGACAC | -0.631 ± 0.11 | -0.0896 ± 0.14 |

| Sequence | self-splicing fitness (ln) (30 °C) | self-splicing fitness (ln) (37 °C) |
| --- | --- | --- |
| AAUUAGCAAUAUUACGACCC | – | 0.136 ± 0.36 |
| AAUUAGCAAUAUUACGACGU | 0.421 ± 0.095 | -0.3 ± 0.075 |
| AAUUAGCAAUAUUACGAGGG | -3.23 ± 0.23 | -2.93 ± 0.3 |
| AAUUAGCAAUAUUACGAGGU | -3.26 ± 0.2 | -3.02 ± 0.24 |
| AAUUAGCAAUAUUACGCAAA | -1.96 ± 0.18 | 0.00784 ± 0.17 |
| AAUUAGCAAUAUUACGCGCC | -0.89 ± 0.23 | -0.821 ± 0.34 |
| AAUUAGCAAUAUUACGGAAU | -2.33 ± 0.27 | -0.461 ± 0.18 |
| AAUUAGCAAUAUUACGGACA | -0.45 ± 0.19 | -1.28 ± 0.18 |
| AAUUAGCAAUAUUACGGCCC | -0.766 ± 0.18 | -0.626 ± 0.29 |
| AAUUAGCAAUAUUACGGCCU | -0.324 ± 0.097 | 0.38 ± 0.16 |
| AAUUAGCAAUAUUACGGCGA | -0.312 ± 0.1 | 0.113 ± 0.1 |
| AAUUAGCAAUAUUACGGGAA | -1.88 ± 0.32 | -1.88 ± 0.3 |
| AAUUAGCAAUAUUACGGGAC | – | -0.571 ± 0.23 |
| AAUUAGCAAUAUUACGGGUU | -1.4 ± 0.12 | -0.955 ± 0.12 |
| AAUUAGCAAUAUUACGGUGU | -2.48 ± 0.091 | -1.32 ± 0.098 |
| AAUUAGCAAUAUUACGUCGG | -2.72 ± 0.19 | -1.66 ± 0.21 |
| AAUUAGCAAUAUUACGUGAC | -2.05 ± 0.21 | -2.73 ± 0.23 |
| ACAAAGCAAUAUUACGAACA | -2.3 ± 0.12 | -0.578 ± 0.1 |
| ACAAAGCAAUAUUACGAACG | -1.1 ± 0.084 | 0.144 ± 0.093 |
| ACAAAGCAAUAUUACGAAGC | -3.71 ± 0.22 | -0.444 ± 0.15 |
| ACAAAGCAAUAUUACGAAUA | -3.62 ± 0.29 | -1.95 ± 0.17 |
| ACAAAGCAAUAUUACGAGAU | -4 ± 0.19 | -1.55 ± 0.097 |
| ACAAAGCAAUAUUACGAGCC | – | -1.97 ± 0.25 |
| ACAAAGCAAUAUUACGAUUA | -1.37 ± 0.11 | -0.593 ± 0.11 |
